From patent US20030199040A1 (IMMUNEX, published 2003)

Molecular target: monkey IL-1Rrp1 endogenous to COS7 cells (monkey)
Experiment: cell-based or functional assay

B1: hAcPL expressed on COS7 cells (receptor)
chain: ERIKGFNISGCSTKKLLWTYSTRSEEEFVLFCDLPEPQKSHFCHRNRLSPKQVPEHLPFMGSNDLSDVQWYQQPSNGDPLEDIRKSYPHIIQDKCTLHFLTPGVNNSGSYICRPKMIKSPYDVACCVKMILEVKPQTNASCEYSASHKQDLLLGSTGSISCPSLSCQSDAQSPAVTWYKNGKLLSVERSNRIVVDEVYDYHQGTYVCDYTQSDTVSSWTVRAVVQVRTIVGDTKLKPDILDPVEDTLEVELGKPLTISCKARFGFERVFNPVIKWYIKDSDLEWEVSVPEAKSIKSTLKDEIIERNIILEKVTQRDLRRKFVCFVQNSIGNTTQSVQLKEKRGVVLLYILLGTIGTLVAVLAASALLYRHWIEIVLLYRTYQSKDQTLGDKKDFDAFVSYAKWSSFPSEATSSLSEEHLALSLFPDVLENKYGYSLCLLERDVAPGGVYAEDIVSIIKRSRRGIFILSPNYVNGPSIFELQAAVNLALDDQTLKLILIKFCYFQEPESLPHLVKKALRVLPTVTWRGLKSVPPNSRFWAKMRYHMPVKNSQGFTWNQLRITSRIFQWKGLSRTETTGRSSQPKEW
In the case of B1, the “increase in NFκB activity (NFκB-Luc reporter) in COS7 cells transfected with hAcPL alone and stimulated with hIL-18” value is reported as 8 fold.
